Experimental findings from patent US20230192897A1 (NUMAB THERAPEUTICS, published 2023) are described below.

The target of experiment [1] is T1, CD137 on Jurkat NFkB reporter cells (human, UniProt Q07011 24-255). Description: cell-based or functional assay.
For experiment [2], the target named is T1, CD137 on Jurkat NFkB reporter cells. The experiment in a line: cell-based or functional assay. The source holds these as a separate data set.
Experiment [3] concerns the target T2, human CD137 extracellular domain (human, UniProt Q07011 24-186).
T2 construct: also called CD137 (PeproTech, cat. 310-15)
Description: SPR, IgG format captured. How it is done: (§1) Affinity to PDL1 of the different species was determined by SPR measurements using a Biacore T200 device (GE Healthcare). An antibody specific for the Fc region of human IgGs was immobilized on a sensor chip (CM5 sensor chip, GE Healthcare) by amine-coupling. For all formats, with the exception of the Fc containing Morrison formats, PDL1-Fc chimeric protein from different species were captured by the immobilized antibody.
(§2) The Fc containing formats were directly captured by the antibody specific for the Fc region of human IgGs. Two-fold serial dilutions of PDL1 extracellular domain or CD137 extracellular domain ranging from 90 to 0.35 nM were tested for binding to the IgG captured on the biosensor chip. After each injection cycle, surfaces were regenerated with one injection of a 3 M MgCl2 solution.

Experiment [4] deals with human PDL1 extracellular domain (human, UniProt Q9NZQ7 19-238). Description: SPR, IgG format captured. How it is done:
as §1, §2

The target of experiment [5] is T3, human PDL1 on cells (human, UniProt Q9NZQ7 19-290). Description: cell-based or functional assay.
In experiment [6] the target is T4, biotinylated human PDL1 (human, UniProt Q9NZQ7 19-238, limits assumed, biotinylated).
T4 construct: also called biotinylated PDL1
Description: competition ELISA PD-1/PDL1.

Experiment [7] has as its target T4, biotinylated human PDL1. The experiment in a line: competition ELISA B7.1/PDL1. In a few lines: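 Test mixtures containing biotinylated human PDL1 were pre-incubated 1 h at room temperature, then incubated 1.5 h on the plate under agitation. Bound PDL1 detected with 10 ng/ml streptavidin-polyHRP40 and TMB, stopped at 6 min with HCl, read at 450 nm minus 690 nm. IC₅₀ from 4PL fit.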

Experiment [8] has as its target T3, human PDL1 on cells. The experiment in a line: cell-based or functional assay. This is another data set of the same source.
Experiment [9] deals with T1, CD137 on Jurkat NFkB reporter cells. The experiment in a line: cell-based or functional assay. This is another data set of the same source.
For experiment [10] the target is unchanged. Description: cell-based or functional assay. The source holds these as a separate data set.
Experiment [11] has the same target. The experiment in a line: cell-based or functional assay. The source holds these as a separate data set.
For experiment [12] the target is unchanged. Description: cell-based or functional assay. The source holds these as a separate data set.
Experiment [13] shares this target. The experiment in a line: cell-based or functional assay. The source holds these as a separate data set.
Experiment [14] deals with T5, Fc tagged human PDL1 (human, UniProt Q9NZQ7 19-239).
T5 construct: Bought (Sino Biological, cat. 10084-H02H); captured on the SPR chip; also called PDL1-Fc chimeric protein
Description: SPR. Put shortly:
(§3)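 Kinetics were fitted with a one-to-one Langmuir model to give apparent ka, kd and KD. Binders at 0.12-90 nM (three-fold series) flowed 3 min, with 10 min dissociation and 3 M MgCl₂ regeneration, on a Biacore T200.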

Experiment [15] addresses cynomolgus CD137-Fc chimeric protein (cynomolgus monkey, UniProt A9YYE7 24-186). The experiment in a line: SPR. Put shortly:
as §3

For experiment [16], the target named is T6, Fc tagged human CD137 (human, UniProt Q07011 24-186).
T6 construct: also called CD137-Fc chimeric protein
The experiment in a line: SPR. Put shortly:
as §3

Experiment [17] has as its target T7, mouse CD137-Fc chimeric protein (mouse, UniProt P20334 24-187, limits assumed).
T7 sequence (looked up): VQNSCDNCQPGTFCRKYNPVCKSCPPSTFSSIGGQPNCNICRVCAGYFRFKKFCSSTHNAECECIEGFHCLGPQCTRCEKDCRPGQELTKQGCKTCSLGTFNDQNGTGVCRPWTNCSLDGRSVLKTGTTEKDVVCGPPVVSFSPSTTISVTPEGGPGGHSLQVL
The experiment in a line: SPR. In a few lines: as §3

Several values for one entry are separate records, joined by “and”; a condition that tells them apart may be missing. Identical values can stand only once. Like-named read-outs stand apart in the source and are kept apart here.

In the case of urelumab (antibody), in [1], the EC50, NFkB reporter, CHO-PDL1 amounted to 0.0791 µg/mL; the EC50, NFkB reporter, CHO-PDL1, 6 h worked out at 0.0565 µg/mL; the EC50, NFkB reporter, CHO-PDL1, 6 h, +HSA was 0.0777 µg/mL; the EC50, NFkB reporter, CHO-PDL1, 24 h stood at 0.0466 µg/mL. Besides, in experiment [1], the EC50, NFkB reporter, CHO-PDL1, 24 h, +HSA stood at 0.0782 µg/mL; the EC50, NFkB reporter, HCC827 with IFNg is 0.114 µg/mL and 0.145 µg/mL and 0.108 µg/mL; the EC50, NFkB reporter, HCC827 with IFNg, 24 h is 0.0528 µg/mL; the EC50, NFkB reporter, HCC827 without IFNg is 0.212 µg/mL and 0.11 µg/mL and 0.112 µg/mL. In experiment [1], this molecule came in with an EC50, NFkB reporter, HCC827 without IFNg, 24 h of 0.0475 µg/mL; a Top of curve fit, NFkB reporter, CHO-PDL1 of 102; a Top of curve fit, NFkB reporter, HCC827 with IFNg of 100; a Top of curve fit, NFkB reporter, HCC827 without IFNg of 100. Also, in experiment [2], the EC50, NFkB reporter, CHO-PDL1 is 0.0795 µg/mL and 0.104 µg/mL and 0.0865 µg/mL; the Top of curve fit, NFkB reporter, CHO-PDL1 amounted to 100.

B1: PRO1062 (bispecific antibody, human IgG1, kappa, L234A L235A)
light: DIQMTQSPSSLSASVGDRVTITCQASQSINDYLAWYQQKPGKAPKLLIYKASTLASGVPSRFSGSGSGTDFTLTISSLQPEDFATYYCQQGYIITDIDNVFGTGTKVTVLGTVAAPSVFIFPPSDEQLKSGTASVVCLLNNFYPREAKVQWKVDNALQSGNSQESVTEQDSKDSTYSLSSTLTLSKADYEKHKVYACEVTHQGLSSPVTKSFNRGEC
heavy: QVQLQESGPGLVKPSETLSLTCKVSGFSFSSGYDMCWIRQPPGKGLEWIGCVVAGSVDITYYASWAKGRVTISVDSSKNQFSLKLSSVTAADTAVYYCARKDAYSDAFNLWGQGTLVTVSSASTKGPSVFPLAPSSKSTSGGTAALGCLVKDYFPEPVTVSWNSGALTSGVHTFPAVLQSSGLYSLSSVVTVPSSSLGTQTYICNVNHKPSNTKVDKRVEPKSCDKTHTCPPCPAPEAAGGPSVFLFPPKPKDTLMISRTPEVTCVVVDVSHEDPEVKFNWYVDGVEVHNAKTKPREEQYNSTYRVVSVLTVLHQDWLNGKEYKCKVSNKALGAPIEKTISKAKGQPREPQVYTLPPSREEMTKNQVSLTCLVKGFYPSDIAVEWESNGQPENNYKTTPPVLDSDGSFFLYSKLTVDKSRWQQGNVFSCSVMHEALHNHYTQKSLSLSPGKGGGGSGGGGSIQMTQSPSSLSASVGDRVTITCQASQSINNVLAWYQQKPGKAPKLLIYRASTLASGVPSRFSGSGSGTDFTLTISSLQPEDFATYYCQSSYGNYGDFGTGTKVTVLGGGGGSGGGGSGGGGSGGGGSQVQLQESGPGLVKPSETLSLTCKVSGFSFSNSYWICWIRQPPGKGLEWIGCTFVGSSDSTYYANWAKGRVTISVDSSKNQFSLKLSSVTAADTAVYYCARHPSDAVYGYANNLWGQGTLVTVSS
notes: also called 33-03-G02 sc01 IgG1 HC with 38-27-C05 sc01 scFv; Morrison-H
Regarding B1, in experiment [3], the Kd amounted to 1.3 nM, the koff stood at 0.00037 s⁻¹ and the on-rate (kon) came to 280000 M⁻¹ s⁻¹. The molecule also returned a koff in experiment [4] of 5e-05 s⁻¹. Also, in [5], the IC50 (ng/ml), NF-AT potency assay came out at 96.5 ng/mL and the rel. IC50 (avelumab/test) was 0.68 fold. In [1], this molecule had an EC50, NFkB reporter, CHO-PDL1, 6 h of 0.0522 µg/mL; an EC50, NFkB reporter, CHO-PDL1, 24 h of 0.0869 µg/mL; an IC50 (ng/ml), NFkB reporter, CHO-PD-L1, 24 h of 86.9 ng/mL; a max. activation (%), NFkB reporter, CHO-PD-L1, 24 h of 134%. Besides, in experiment [1], the rel. IC50 (urelumab/test), NFkB reporter, CHO-PD-L1, 24 h came to 0.54 fold. For the same molecule, in experiment [6], the IC50 amounted to 0.0113 µg/mL and the “rel. IC50 (IC50 avelumab/IC50 test)” value was 0.32 fold. For the same molecule, in [7], the IC50 is 0.0195 µg/mL and the “rel. IC50 (IC50 avelumab/IC50 test)” value was 0.51 fold.

B2: PRO1060 (bispecific antibody, human IgG1, kappa, L234A L235A)
light: B1 light
heavy: B1 heavy
notes: silent hIgG1 anti-PDL1 with anti-CD137 scFv on the heavy chain; also called 33-03-G02 IgG1 HC with 38-02-A04 sc01 scFv; Morrison-H
In the case of B2, in experiment [8], the “IC50 (ng/ml), NF-AT potency assay” value came to 133 ng/mL and the “rel. IC50 (avelumab/test)” value amounted to 0.44 fold. Moreover, in experiment [3], binding was characterised by a dissociation constant (Kd) of 1.3 nM and the koff was found to be 0.00039 s⁻¹. In [4], this molecule displayed a koff of 4.6e-05 s⁻¹ and a kon of 1.3e+06 M⁻¹ s⁻¹. In [9], the “EC50, NFkB reporter, HCC827 with IFNg, 24 h” value was found to be 0.0175 µg/mL and the “EC50, NFkB reporter, HCC827 without IFNg, 24 h” value came out at 0.0136 µg/mL. Further, the “EC50, NFkB reporter, CHO-PDL1, 24 h” value in experiment [10] was 0.0808 µg/mL. In [11], the “IC50 (ng/ml), NFkB reporter, CHO-PD-L1, 24 h” value was 80.8 ng/mL; the “IC50 (ng/ml), NFkB reporter, HCC827 + IFNg, 24 h” value stood at 17.5 ng/mL; the “IC50 (ng/ml), NFkB reporter, HCC827 - IFNg, 24 h” value was determined as 13.6 ng/mL; the “rel. IC50 (urelumab/test), NFkB reporter, CHO-PD-L1, 24 h” value turned out to be 0.58 fold. Besides, in experiment [11], the “rel. IC50 (urelumab/test), NFkB reporter, HCC827 + IFNg, 24 h” value was 3.01 fold and the “rel. IC50 (urelumab/test), NFkB reporter, HCC827 - IFNg, 24 h” value turned out to be 3.5 fold. Further, in experiment [6], the IC50 was 0.00567 µg/mL and the “rel. IC50 (IC50 avelumab/IC50 test)” value was determined as 0.3 fold. Also, in [7], the half-maximal inhibitory concentration (IC50) stood at 0.0174 µg/mL and the “rel. IC50 (IC50 avelumab/IC50 test)” value is 0.49 fold. Also, the “EC50, NFkB reporter, CHO-PDL1, 6 h” value in experiment [12] came out at 0.0564 µg/mL.

B3: PRO951 (bispecific antibody)
chain: DIQMTQSPSSLSASVGDRVTITCQASQSINDYLAWYQQKPGKAPKLLIYKASTLASGVPSRFSGSGSGTDFTLTISSLQPEDFATYYCQQGYIITDIDNVFGTGTKVTVLGGGGGSEVQLVESGGGLVQPGGSLRLSCAASGFSFNNDYDMCWVRQAPGKGLEWIGCIDTGDGSTYYASWAKGRFTISRDNSKNTVYLQMNSLRAEDTAVYYCAREAASSSGYGMGYFDLWGQGTLVTVSSGGGGSGGGGSGGGGSGGGGSIQMTQSPSSLSASVGDRVTITCQSSQSVYDNNWLAWYQQKPGKAPKLLIYRASNLASGVPSRFSGSGSGTDFTLTISSLQPEDFATYYCQGTYLSSNWYWAFGTGTKVTVLGGGGGSQVQLQESGPGLVKPSETLSLTCKVSGFSFSSGYDMCWIRQPPGKGLEWIGCVVAGSVDITYYASWAKGRVTISVDSSKNQFSLKLSSVTAADTAVYYCARKDAYSDAFNLWGQGTLVTVSS
notes: scDb anti-PDL1 x CD137; also called 38-27-C05 sc02 scDb-i/33-03-G02 sc01 scDb-o
Take B3: the “EC50, NFkB reporter, CHO-PDL1” value in [13] came out at 0.0337 µg/mL. For the same molecule, in [8], the “IC50 (ng/ml), NF-AT potency assay” value came to 88.5 ng/mL and the “rel. IC50 (avelumab/test)” value was determined as 0.47 fold. In experiment [11], the “IC50 (ng/ml), NFkB reporter, CHO-PD-L1” value was 33.7 ng/mL; the “max. activation (%), NFkB reporter, CHO-PD-L1” value is 432%; the “rel. IC50 (urelumab/test), NFkB reporter, CHO-PD-L1” value worked out at 2.35 fold. Also, in experiment [6], the IC50 worked out at 0.0095 µg/mL and the “rel. IC50 (IC50 avelumab/IC50 test)” value was 0.15 fold. In [7], the IC50 came to 0.0093 µg/mL and the “rel. IC50 (IC50 avelumab/IC50 test)” value was determined as 0.78 fold. This molecule yielded a kon in [14] of 2.2e+06 M⁻¹ s⁻¹. In [15], this molecule showed a Kd of 6.9 nM, a dissociation rate constant (koff) of 0.01 s⁻¹ and a kon of 1.5e+06 M⁻¹ s⁻¹. This molecule gave a Kd in experiment [16] of 4.2 nM. Besides, the binding result in [17] is “no binding”.
